Experimental data as given in patent US20250250357A1 (NANJING ZAIMING PHARMACEUTICAL, published 2025).

Key:
[1] = target: T1, human MSLN-FL-his protein (human, UniProt Q13421 296-580); assay: competitive ELISA; row F2.17.3
T1 construct: made in HEK293E cells, purified on nickel column; also called hMSLN-FL-his; human MSLN full-length protein; not shown: His tag

[2] = target: T1, human MSLN-FL-his protein; assay: competitive ELISA; row F2.16.10
Protocol: (§1) In order to identify antigen-binding sites of antibodies, MSLN chimeric antibodies were grouped using competitive ELISA.
(§2) The chimeric antibodies were diluted to 2 μg/mL with PBS and allowed to coat 96-well high-adsorption ELISA plates at 50 μL/well. After the plates were coated at 4° C. overnight, 250 μL of a blocking buffer (PBS containing 2% (w/w) BSA) was added for two hours of blocking at room temperature. 40 μg/mL of the antibodies to be tested were added, and then the human MSLN-FL-His protein with an EC₈₀ concentration corresponding to each of the antibodies to be tested was added for incubation for 2 h. The plates were washed 5 times with PBS, an HRP-labeled anti-His secondary antibody (purchased from Genescript, Cat. No. A00612) was then added for incubation for 1 h, and the plates were washed 5 times again. A TMB substrate was added at 50 μL/well, and after 10 minutes of incubation at room temperature, a stop solution (1.0 M HCl) was added at 50 μL/well. OD₄₅₀ nm values were read using an ELISA plate reader (Insight, purchased from PerkinElmer), and the competition rate between the antibodies was calculated according to the OD₄₅₀ nm values using a formula.

[3] = target: T2, human MSLN protein, endogenously expressed on Hela and OVCAR3 cells (human, UniProt Q13421 296-598); assay: FACS on OVCAR3 cells; antibody 20 nM
T2 construct: whole, on cells; also called mesothelin
T2 sequence (Q13421 other isoform, or with tags, fused parts or gaps): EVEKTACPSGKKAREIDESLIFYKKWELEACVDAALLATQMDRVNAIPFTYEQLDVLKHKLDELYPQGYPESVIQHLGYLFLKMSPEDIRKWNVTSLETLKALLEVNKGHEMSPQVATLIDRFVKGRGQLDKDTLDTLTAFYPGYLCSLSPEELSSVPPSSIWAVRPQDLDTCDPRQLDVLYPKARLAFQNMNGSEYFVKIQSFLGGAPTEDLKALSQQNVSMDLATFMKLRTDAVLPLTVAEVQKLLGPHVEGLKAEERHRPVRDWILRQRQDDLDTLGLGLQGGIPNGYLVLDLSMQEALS

[4] = target: T3, human MSLN-R2-his protein (human, UniProt Q13421 391-486); assay: ELISA; antibody 0.01 nM
T3 construct: also called hMSLN-R2-his; not shown: His tag
T3 sequence (Q13421 other isoform, or with tags, fused parts or gaps): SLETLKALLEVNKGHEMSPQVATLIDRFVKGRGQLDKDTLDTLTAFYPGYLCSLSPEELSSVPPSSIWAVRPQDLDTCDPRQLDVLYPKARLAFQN

[5] = target: T4, human MSLN-R3-his protein (human, UniProt Q13421 487-598); assay: ELISA; antibody 0.01 nM
T4 construct: also called hMSLN-R3-his; not shown: His tag
T4 sequence (Q13421 495-606): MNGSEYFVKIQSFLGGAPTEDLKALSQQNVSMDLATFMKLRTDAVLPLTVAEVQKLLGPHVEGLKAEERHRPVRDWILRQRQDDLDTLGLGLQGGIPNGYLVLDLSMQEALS

[6] = target: T2, human MSLN protein, endogenously …; assay: FACS on OVCAR3 cells; antibody 4 nM
[7] = target: T4, human MSLN-R3-his protein; assay: ELISA; antibody 0.0001 nM
[8] = target: T4, human MSLN-R3-his protein; assay: ELISA; antibody 1 nM
[9] = target: T3, human MSLN-R2-his protein; assay: ELISA; antibody 100 nM
[10] = target: T1, human MSLN-FL-his protein; assay: competitive ELISA; row Tab107 (conformation)
Protocol: as §1, §2

[11] = target: T3, human MSLN-R2-his protein; assay: ELISA; antibody 10 nM
[12] = target: T3, human MSLN-R2-his protein; assay: ELISA; antibody 0 nM (blank)
[13] = target: T1, human MSLN-FL-his protein; assay: competitive ELISA; row Tab142 (R1)
Protocol: as §1, §2

[14] = target: T4, human MSLN-R3-his protein; assay: ELISA; antibody 0.001 nM
[15] = target: T3, human MSLN-R2-his protein; assay: ELISA; antibody 1 nM
[16] = target: T4, human MSLN-R3-his protein; assay: ELISA; antibody 100 nM
[17] = target: T1, human MSLN-FL-his protein; assay: competitive ELISA; row F1.56.1
Protocol: as §1, §2

[18] = target: T2, human MSLN protein, endogenously …; assay: FACS on OVCAR3 cells; antibody 0.16 nM
[19] = target: T3, human MSLN-R2-his protein; assay: ELISA; antibody 0.001 nM
[20] = target: T1, human MSLN-FL-his protein; assay: competitive ELISA; row F1.35.24
Protocol: as §1, §2

[21] = target: T4, human MSLN-R3-his protein; assay: ELISA; antibody 0.1 nM
[22] = target: T2, human MSLN protein, endogenously …; assay: FACS on OVCAR3 cells; antibody 100 nM
[23] = target: T1, human MSLN-FL-his protein; assay: competitive ELISA; row Tab108 (R3)
Protocol: as §1, §2

[24] = target: T3, human MSLN-R2-his protein; assay: ELISA; antibody 0.0001 nM
[25] = target: T1, human MSLN-FL-his protein; assay: competitive ELISA; row F2.58.8
Protocol: as §1, §2

[26] = target: T2, human MSLN protein, endogenously …; assay: FACS on OVCAR3 cells; antibody 0.032 nM
[27] = target: T1, human MSLN-FL-his protein; assay: competitive ELISA; row F1.2.12
Protocol: as §1, §2

[28] = target: T1, human MSLN-FL-his protein; assay: competitive ELISA; row F2.24.10
Protocol: as §1, §2

[29] = target: T1, human MSLN-FL-his protein; assay: competitive ELISA; row F2.13.3
Protocol: as §1, §2

[30] = target: T1, human MSLN-FL-his protein; assay: competitive ELISA; row F2.39.3
Protocol: as §1, §2

[31] = target: T2, human MSLN protein, endogenously …; assay: FACS on OVCAR3 cells; antibody 0.8 nM
[32] = target: T4, human MSLN-R3-his protein; assay: ELISA; antibody 10 nM

T1 sequence (Q13421 other isoform, or with tags, fused parts or gaps): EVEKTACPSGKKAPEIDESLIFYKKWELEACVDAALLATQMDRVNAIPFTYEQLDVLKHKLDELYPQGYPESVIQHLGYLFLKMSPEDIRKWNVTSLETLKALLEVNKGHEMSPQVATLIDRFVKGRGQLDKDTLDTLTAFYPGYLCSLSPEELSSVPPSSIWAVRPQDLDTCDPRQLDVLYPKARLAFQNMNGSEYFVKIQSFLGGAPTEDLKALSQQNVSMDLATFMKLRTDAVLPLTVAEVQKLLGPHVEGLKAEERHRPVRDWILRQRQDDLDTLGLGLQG

B1: Tab107 (YP3, hIgG1) (antibody, V domains shown)
VH: QEQLVESGGGLVQPGASLTLTCTASGIDFSRYYMCWVRQAPGKGLEGIACIYIGGSGSTYYASWAKGRFTISKASSTTVTLQMTSLTAADTATYFCARGTNLNYIFRLWGPGTLVTVSS
VL: DVVMTQTPSPVSAAVGGTVTIKCQASQSINNGLAWYQQKPGQPPRLLIYSASNLESGVPSRFKGSGSGTEFTLTISDLECDDAATYYCQCIWDGNSYVNAFGGGTEVVVRT
notes: Control antibody; VH and VL recombined into human IgG1 CH and CL expression vectors; also called YP3 human IgG1 antibody
- competition rate [1]: -86%
- competition rate [2]: -104%
- FACS fluorescence intensity [3]: 2640
- OD450 nm [4]: 0.04
- OD450 nm [5]: 0.04
- FACS fluorescence intensity [6]: 1520
- OD450 nm [7]: 0.05
- OD450 nm [8]: 0.05
- OD450 nm [9]: 0.09
- competition rate [10]: 94%
- OD450 nm [11]: 0.05
- OD450 nm [12]: 0.05
- competition rate [13]: -6%
- OD450 nm [14]: 0.05
- OD450 nm [15]: 0.05
- OD450 nm [16]: 0.09
- competition rate [17]: -124%
- FACS fluorescence intensity [18]: 229
- OD450 nm [19]: 0.05
- competition rate [20]: 8%
- OD450 nm [21]: 0.05
- FACS fluorescence intensity [22]: 3150
- competition rate [23]: -80%
- OD450 nm [24]: 0.04
- competition rate [25]: 9%
- FACS fluorescence intensity [26]: 111
- competition rate [27]: -41%
- competition rate [28]: -19%
- competition rate [29]: -203%
- competition rate [30]: -24%
- FACS fluorescence intensity [31]: 619
- OD450 nm [32]: 0.05
